Experimental findings from publication PMC8173604 (Cell, 2021) are described below.

This experiment deals with purified HLA-A*02:01 MHC molecule (human | ). Description: radioligand binding.

Usually IC50 stands for the concentration at which inhibition is half-maximal. A higher IC50 goes with weaker potency in that assay. Regarding GLITLSYHL [GLITLSYHL, HLA-I peptide from S.iORF1/2], the 50% inhibitory concentration (IC50) was below 0.5 nM.
Turning to MLLGSMLYM [MLLGSMLYM, HLA-I peptide from S.iORF1/2], the IC50 is below 0.5 nM.
